# Laboratory results: patent US20240383999A1 (University of Texas, published 2024)
# B1: R-35 (antibody, V domains shown)
# VH: AAVKESGGRLVTPGTPLTLTCTVSGIDLSDYYMTWVRQAPGKGLEYIGIIYASGNAYFASWAKGRFTISRTSSTTVDLNVASPTTEDTATYFCARNIGGSSNLWGQGTLVTVSS
# VL: ELDMTQTPASVSEPVGGTVTIKCQASERIYNNLAWYQQKPGQPPKLLFYSASTLASGVPSRFKGSGSGTEFTLTISDLECADAAIYYCQCTGYGTTYGLVFGGGTEVEI
# notes: also called anti-CD5L antibody R-35; CD5L antibody (R-35)
# B2: H-447 (antibody, V domains shown)
# VH: EVQLVQSGGGLVQPGGSLRLSCAASGFTVSSNYMSWVRQAPGKGLEWVSVIYSGGSTYYADSVKGRFTISRHNSKNTLYLQMNSLRAEDTAVYYCARESAVAGWGMDVWGKGTTVTVSS
# VL: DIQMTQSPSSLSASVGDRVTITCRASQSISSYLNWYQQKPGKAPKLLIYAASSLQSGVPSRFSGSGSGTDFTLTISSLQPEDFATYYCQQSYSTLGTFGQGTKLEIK
# B3: R-3 (antibody, V domains shown)
# VH: QSLKESGGRLVKPDETLTITCTASGIDLTSGTVGWFRQAPGKGLEWIGIIRGSGSTYYATWAKGRFTISKTSTTVDLKLTSPTTEDTATYLCARAFPGYNTFFNFWGQGTLVTISS
# VL: ELDLTQTPSSVEAAVGGTVTIKCQASESIGNALAWYQQKPGQPPKLLIWKASNLESGVPPRFKGSGSGTEFTLTISDLECADAATYYCQRYYFNGVSVEIVFGGGTEVVVKG
# B4: R-45 (antibody, V domains shown)
# VH: QSVKESGGRLVTPGTPLTLTCTVSGFSINDFHMCWVRQAPGKGLEYIGMIGTGGSAYYATWTKGRFTISRTSTTVDLKITSPTTEDTATYFCARRDWSDGGYSLLWGQGTLVTVSS
# VL: ELDLTQTPASVSEPVGGTVTIKCQASQSIRTYLNWYQQKPGQPPKLLIYSASTLASGIPSRFKGSGSGTQFTLTISDLECADAATYYCQQGYYWSDVENTFGGGTEVEIN
# B5: R-13 (antibody, V domains shown)
# VH: QSLEESGGRLVTPGTPLTLTCTVSGFSLSSYPMSWVRQAPGKGLEWIGIITSGGSIFYATWANGRFTISKTSTTVDLKITSPTTEDTATYFCARGYSSGTMMSSNLWGQGTLVTVSS
# VL: ELVLTQTPASVSEPVGGTVTIKCQASESISTYLSWYQQKPGQRPKLLIYRASTLESGVPSRFKGSGSGTEYTLTISGVQCADAATYYCQQGYTYKNVDNAFGGGTEVVVK
# B6: R-40 (antibody, V domains shown)
# VH: QSVKESGGRLVKPDETLTITCTVSGIDLSRYSIQWVRQAPGGGLQWIGVMSIGSSAYYANWAKGRFTISKTSSTTVDLTMTSLTAADTATYFCARSNLYRGAFDPWGPGTLVTISS
# VL: ELVMTQTPASVEAAVGGTVTIKCQSSESVYKNNYLSWYQLKPGQPPKLLFYSASTLASRVPSRFSGSGSGTQFTLTISDLECDDAATYYCAGYYGSSSVDRYTFGGGTEVEIK
# B7: R-34 (antibody, V domains shown)
# VH: QSVKESGGRLVTPGTPLTLTCTVSGFSLSSSGMSWVRQAPGKGLEWIGLTFPSGSASYASWAKGRFTVSRTSTTVDLNLTSPTTEDTATYFCAHVGATTGRDFWGQGTLVTVSS
# VL: ELVMTQTASSVSAAVGGTVTISCQSSQNIYNNRWSWYQQKPGQPPKLLIYQASTLASGVPSRFKGSGSGTQFTLTISGVQCDDAATYYCAGGYSGTIFTFGGGTELEIK
# Target: T1, Human recombinant CD5L protein (Sino Biological, Catalog Number 10791-H08H) (human, UniProt O43866 20-347)
# T1 construct: Bought protein; also called human CD5L; CD5L-His; not shown: 6xHIS-tag
# T1 sequence (looked up): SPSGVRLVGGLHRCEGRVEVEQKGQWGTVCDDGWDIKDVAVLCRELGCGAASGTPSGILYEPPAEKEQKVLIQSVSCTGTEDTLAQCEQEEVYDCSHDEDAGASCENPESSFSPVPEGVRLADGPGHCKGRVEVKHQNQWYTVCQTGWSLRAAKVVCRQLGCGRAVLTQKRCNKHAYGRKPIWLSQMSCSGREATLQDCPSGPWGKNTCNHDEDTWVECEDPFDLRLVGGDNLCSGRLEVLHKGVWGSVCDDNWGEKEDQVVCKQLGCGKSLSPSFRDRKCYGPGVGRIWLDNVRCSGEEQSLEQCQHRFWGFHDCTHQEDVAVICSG
# Test: BLI (Octet RED96), antibody on protein A biosensors, CD5L 0.1-200 nM in solution, 1:1 fit
# Method: All experiments were performed with shaking at 1,000 rpm. Background wavelength shifts were measured from reference biosensors that were loaded only with antibody. ForteBio's data analysis software was used to fit the data to a 1:1 binding model to extract an association rate and dissociation rate.
row,Binder,Kd [nM]
1,B1,0.78
2,B2,28.7
3,B3,2.18
4,B4,2.97
5,B5,1.72
6,B6,1.74
7,B7,1.35

# Target: T1, Human recombinant CD5L protein (Sino …)
# Test: titration ELISA, human CD5L coated on plate
# Method: FIG. 11. […] Bound antibody was detected using a secondary antibody against rabbit IgG conjugated with HRP and TMB substrate for detection of A450 nm. EC₅₀ was estimated using GraphPad software by applying a 4-parameter fitting to calculate binding affinity of the antibodies.
# Binding constants (EC₅₀) of a panel of monoclonal antibodies were estimated by titration ELISA, and the data were analyzed using the 4-parameter curve fitting with GraphPad Prism program (Table 6).
row,Binder,EC50 [µg/mL]
1,B1,0.169
2,B2,0.25
3,B3,0.183
4,B4,0.0788
5,B5,0.116
6,B6,0.21
7,B7,0.22
